Reference: article PMC4110284

B1: wild-type human-mouse chimera IgG4 B72.3 with Ser222 (antibody, V domains shown)
VH: QVQLQQSDAELVKPGASVKISCKASGYTFTDHAIHWAKQKPEQGLEWIGYISPGNDDIKYNEKFKGKATLTADKSSSTAYMQLNSLTSEDSAVYFCKRSYYGHWGQGTTLTVSS
VL: DIQMTQSPASLSVSVGETVTITCRASENIYSNLAWYQQKQGKSPQLLVYAATNLADGVPSRFSGSGSGTQYSLKINSLQSEDFGSYYCQHFWGTPYTFGGGTRLEIK

What was measured:
[1] = biological target: mutant IgG4 with Pro222 (human); assay: AUC; sedimentation velocity, 40,000 rpm, SEDFIT c(s) analysis with integration of the monomer and dimer peaks; IgG4(Ser222) 0.5-8 mg/ml in PBS-50, PBS-137 and PBS-250 in H2O at 20 °C and in PBS-137 in 2H2O at 6, 20 and 30 °C; IgG4(Pro222) 0.5-2.5 mg/ml in PBS-137 in H2O at 20 °C; pH 7.4; dimer to monomers
[2] = biological target: wild-type human-mouse chimera IgG4 B72.3 with Ser222 (human); assay: as above

| Molecule | percent dimer [1] [%] | stoichiometry N [1] | Kd [2] [µM] | percent dimer [2] [%] | stoichiometry N [2] |
| --- | --- | --- | --- | --- | --- |
| mutant IgG4 with Pro222 (antibody) | 2 to 3 | 2 |  |  |  |
| B1 |  |  | 600 to 3000 | 1 to 3 | 2 |
